A word on the stoichiometry N: it is the number of molecules, sites or subunits per partner or assembly.

The values that follow come from publication PMC3215728.

In experiment [1] the target is CFP-dysferlin / YFP-dysferlin (full-length human dysferlin) expressed in HEK293 cells (human) (UniProt O75923). Put plainly: FRET or BRET; acceptor-selective photobleaching FRET between CFP- and YFP-tagged copies in living HEK293 cells; linearity of donor against acceptor for stoichiometry; hyperbolic fit of FRET against YFP intensity gives FRETmax and KD in arbitrary units. Particulars: remark: other sources report otherwise. A general note: In BRET a luciferase serves as donor, and the signal depends on an acceptor being close.

Experiment [2] shares this target. Kind of experiment: fluorescence correlation spectroscopy (FCS); YFP-dysferlin diffusing in detergent solution, 1% CHAPS or 0.5% DDM; single species diffusion model. Particulars: remark: other sources report otherwise.
Experiment [3] has the same target. Kind of experiment: fluorescence correlation spectroscopy (FCS); YFP-dysferlin diffusing in detergent solution, Triton X-100; 2-species fit. The conditions noted are these: remark: other sources report otherwise.
The target is the same in experiment [4]. Kind of experiment: photon counting histogram (PCH); detergent solubilized YFP-dysferlin in CHAPS or DDM; molecular brightness normalised to monomeric YFP. Particulars: remark: other sources report otherwise.
For experiment [5] the target is unchanged. Put plainly: FRET or BRET; three-cube fluorescence microscopy (E-FRET), pixel by pixel, CFP-dysferlin and YFP-dysferlin in living HEK293 cells. The conditions noted are these: remark: other sources report otherwise.
Experiment [6] has as its target CFP-dysferlin / YFP-dysferlin (full-length human dysferlin) expressed in mouse FDB muscle fibers (human) (UniProt O75923). Kind of experiment: FRET or BRET; acceptor-selective photobleaching FRET between CFP-dysferlin and YFP-dysferlin in living FDB muscle fibers isolated from electroporated dysferlin-deficient mice. Particulars: remark: other sources report otherwise.

The target of experiment [7] is Endogenous dysferlin from rabbit skeletal muscle (rabbit (endogenous in skeletal muscle)). Put plainly: cross-linking; rabbit skeletal muscle microsomes with or without 100 µM o-PDM on ice for 30 min; SDS-PAGE and western blot.
Experiment [8] has as its target His6-tagged dysferlin (human) (UniProt O75923). Put plainly: SEC; Superose 6 HR 10/30 FPLC; mobile phase 1% CHAPS, 150 mM NaCl, 50 mM Tris pH 7.5, 0.4 ml/min; fractions blotted with Hamlet antibody; monomer to dimer. Particulars: remark: other sources report otherwise. Background: Size exclusion chromatography separates by hydrodynamic size, large species first.

With “CFP-dysferlin / YFP-dysferlin (full-length human dysferlin) expressed in HEK293 cells, O75923 1-2080”, the FRETmax in experiment [1] amounted to 26.8%. Moreover, the stoichiometry N in experiment [1], in experiment [2] and in experiment [4] was 2 each time. In addition, the percent of molecules diffusing as the slower (dimer) species in experiment [3] was determined as 17%. The FRET efficiency in experiment [5] is 20.6%.

In experiment [6], “CFP-dysferlin / YFP-dysferlin (full-length human dysferlin) expressed in mouse FDB muscle fibers, O75923 1-2080” displayed an FRETmax of 33.3% and a stoichiometry N of 2.

As to “Endogenous dysferlin from rabbit skeletal muscle (natural protein)”, in experiment [7], the stoichiometry N was 2.

Regarding His6-tagged dysferlin, O75923 1-2080, the stoichiometry N in experiment [8] stood at 2.
